# In US8486893B2, “Treatment of conditions involving demyelination” (Biogen Idec MA Inc., priority 2004, dated 2013):
# B1: Sp35-Fc: extra-cellular portion of human Sp35 (residues 1-532) fused to the hinge and Fc region of human IgG1 (protein)
# chain: TGCPPRCECSAQDRAVLCHRKRFVAVPEGIPTETRLLDLGKNRIKTLNQDEFASFPHLEELELNENIVSAVEPGAFNNLFNLRTLGLRSNRLKLIPLGVFTGLSNLTKLDISENKIVILLDYMFQDLYNLKSLEVGDNDLVYISHRAFSGLNSLEQLTLEKCNLTSIPTEALSHLHGLIVLRLRHLNINAIRDYSFKRLYRLKVLEISHWPYLDTMTPNCLYGLNLTSLSITHCNLTAVPYLAVRHLVYLRFLNLSYNPISTIEGSMLHELLRLQEIQLVGGQLAVVEPYAFRGLNYLRVLNVSGNQLTTLEESVFHSVGNLETLILDSNPLACDCRLLWVFRRRWRLNFNRQQPTCATPEFVQGKEFKDFPDVLLPNYFTCRRARIRDRKAQQVFVDEGHTVQFVCRADGDPPPAILWLSPRKHLVSAKSNGRLTVFPDGTLEVRYAQVQDNGTYLCIAANAGGNDSMPAHLHVRSYSPDWPHQPNKTFAFISNQPGE
# modifications: left off: a dimerising Fc or GST
# notes: extra-cellular portion of human Sp35 (residues 1-532) fused to the hinge and Fc region of human IgG1
# Tests used:
# [1] = test system: differentiated PC12 cells; assay: Apoptotic cell death in differentiated PC12 cells after NGF withdrawal (cell death ELISA / TUNEL); assay type: cell-based
# Procedure: (§1) PC12 cells (Neuroscreen) were differentiated in RPMI-1640 medium supplemented with 5% fetal bovine serum, 10% horse serum, 2 mM glutamine, 100 U/ml penicillin and […] streptomycin containing 200 ng/ml NGF for 7 days. For experiments, the culture media was replaced with NGF-free culture media containing Sp35-Fc, human IgG as a negative control (0.1-10 μM), or zVAD as a positive control (0.1 μM). 18 hours after NGF withdrawal, activated Caspase-3 was quantified using the Caspase 3/7 Glo kit (Promega) according to the manufacturer's instructions. 42 hours after NGF withdrawal, apoptotic cell death was quantified using a cell death detection ELISA kit (Roche) according to the manufacturer's instructions.
# [2] = test system: cuprizone-treated mice; assay: Cuprizone demyelination model, stereotactic injection into corpus callosum; assay type: in vivo; details: injected into corpus callosum at 2, 2.5 and 3 weeks of cuprizone feeding
# Source text: Adult wild-type C57Bl/6 male mice were fed cuprizone (0.2% milled with ground mouse chow by weight) for 6 weeks to induce demyelination within the corpus callosum. Sp35-Fc was stereotactically injected into the demyelinating corpus callosum at 2, 2.5, and 3 weeks of cuprizone feeding. Control mice were stereotactically injected at the same intervals with sterilized media containing no Sp35-Fc. After 6 weeks of cuprizone feeding, the mice were returned to a normal diet for 2, 4 and 6 weeks (ground mouse chow only) to allow remyelination.
# The cuprizone-treated mice were anesthetized with ketamine (80 mg/kg body weight) and xylazine (10 mg/kg body weight) and positioned in an immobilization apparatus designed for stereotactic surgery (David Kopf Instruments). The scalp was opened and the sterile compounds injected (1 μM in […] of HBSS) unilaterally into the acutely demyelinated corpus callosum of the wild-type recipient mice with a […] Hamilton syringe using stereotactic coordinates of 0.7 mm posterior and 0.3 mm lateral to bregma at a depth of 1.7 mm (Messier et al., Pharmacol. Biochem. Behav. 63(2): 313-18 (1999)). Additionally, control recipient mice were stereotactically injected with HBSS containing no compounds. The opening in the skull was filled with Gelfoam, and the area was swabbed with penicillin and streptomycin (Gibco) and the wound was sutured. […]
# [3] = test system: A2B5+ oligodendrocytes; assay: Differentiation of A2B5+ oligodendrocytes treated with Sp35-Fc (O4 staining); assay type: cell-based, rat; details: increasing concentrations, versus control-Fc, FIG. 8
# Procedure: Enriched populations of oligodendrocytes were grown from female Long Evans P2 rats as described by Conn, Meth. Neurosci. 2:1-4 (Academic Press; 1990) with modifications as follows. Briefly, the forebrain was dissected and placed in Hank's buffered salt solution (HBSS; Invitrogen). The tissue was cut into 1-mm fragments and was incubated at 37° C. for 15 min in 0.01% trypsin and 10 μg/ml DNase. Dissociated cells were plated on poly-L-lysine-coated T75 tissue culture flasks and were grown at 37° C. for 10 d in DMEM medium with 20% fetal calf serum (Invitrogen). Oligodendrocyte precursors (A2B5+) were collected by shaking the flask overnight at 200 rpm at 37° C., resulting in a 95% pure population. […] These differentiation states are readily apparent from changes in morphology: A2B5^+ cells are bipolar in shape, O4^+ premyelinating oligodendrocytes have longer and more branched processes and MBP^+ mature oligodendrocytes contain myelin sheet structures between processes.
# A2B5^+ oligodendrocytes, prepared as described in Example 1, were treated with increasing concentrations of Sp35-Fc or control-Fc for 3 days (Sp35-Fc was prepared as described in Example 2). […] After 48 h (72 h for RNAi), cultures were stained with antibody to O4, and the number of total O4+ and mature O4+ oligodendrocytes was quantified. Samples were analyzed in duplicate. […]
# [4] = test system: spinal cord injury rats; assay: Spinal cord injury (dorsal hemisection T6/T7), intrathecal mini-osmotic pump; assay type: in vivo, rat
# Procedure: Spinal cord injury was induced in adult female Long Evans rats (190-210 g; Charles River). A dorsal hemisection was performed at T6/T7, completely interrupting the main dorsomedial and the minor dorsolateral corticospinal tract (CST) components. The cord was sterotaxically transected at a depth of 1.8 mm from the surface using a microscalpel. […] Postoperative care comprised analgesia (Buprenorphine/Buprenex, Reckitt Benckiset Healthcare Ltd., 0.05 mg/kg subcutaneously) every 8-12 hours for 3 days and antibiotic treatment (ampicillin, Bristol Myers Squibb, 100 mg/kg subcutaneously twice daily) for 7 days after surgery. Bladders were expressed manually twice a day for the duration of the study (4 weeks) or until return of function. On completion of the study, rats were anesthetized and trans-cardially perfused with heparinized saline followed by 4% paraformaldehyde (PFA). The spinal cords were removed, embedded in paraffin, and 10 μm sections were cut from for histological analysis.
# To quantify apoptotic cell death after SCI, animals were euthanized 3 or 7 days after SCI and stained using anti-activated-Caspase-3 antibody (Cell Signaling Technologies) and TUNEL staining (Promega). The sections were also stained with anti-NeuN antibody (Chemicon) and anti-CC1 antibody (Calbiochem) to identify neurons and oligodendrocytes, respectively.
# [5] = test system: mature oligodendrocytes; assay: Survival and MBP expression of mature oligodendrocyte cultures treated with Sp35-Fc; assay type: cell-based, rat; details: 10 μg/ml for 5 days
# Procedure: Mature oligodendrocytes have a half-life in vitro of about 48 to 72 hours, with cells typically undergoing apoptosis after 72 hours. […] MBP expression was monitored as a marker for mature ologodendrocytes.
# [6] = test system: Caspase-3; assay: Caspase-3 activation in differentiated PC12 cells after NGF withdrawal (Caspase 3/7 Glo); assay type: cell-based
# Procedure: as §1
molecule,measurement,setting,value
B1,cells undergoing apoptosis (TUNEL assay),"[1]; 18 hours after NGF withdrawal, FIG. 13 legend",fewer cells undergoing apoptosis
same,cell death (TUNEL ELISA),"[1]; 42 hours after withdrawal of NGF, FIG. 13",significantly reduced cell death
same,axon myelination by IHC (anti-MBP antibody or luxol fast blue),[2],increased
same,mature oligodendrocyte survival (CC1 antibody staining),[2]; FIG. 12,increased mature oligodendrocyte survival
same,differentiation of A2B5+ cells into O4+ cells,[3],promoted differentiation of A2B5^+ cells into O4^+ cells in a concentration dependent manner
same,differentiation of A2B5+ cells into O4+ cells,[3]; listed as LINGO-1-Fc,Dose-dependent differentiation
same,number of activated-Caspase-3-positive neurons and oligodendrocytes versus controls,"[4]; 3 days after SCI, 0.25 μl/h of 25 μM intrathecal",significantly smaller
same,"neuron and oligodendrocyte survival around the lesion site (anti-βIII-tubulin, anti-O4)",[4]; four weeks after SCI,more neurons and oligodendrocytes survived
same,increase in MBP protein expression (cell staining and Western blot),[5]; compared to control-Fc treated cells,approximately 3 fold
same,survival rate for mature oligodendrocytes (cell viability staining),[5]; versus control-Fc,significantly increased survival rate
same,Caspase-3 activation,"[6]; 0.1 μM, 18 hours after removal of NGF",reduced Caspase-3 activation
same,dose dependence of effect on Caspase-3 activation,"[6]; 0.1-10 μM, 18 hours after NGF withdrawal",dose-dependent
same,effect on Caspase-3 activation compared with zVAD (0.1 μM),"[6]; 1 or 10 μM, FIG. 14",as effective as a neuroprotective dose of the caspase inhibitor zVAD
